The values that follow come from article PMC12236388, “Investigating the co-assembly of amphipathic peptides” (Faraday Discussions, 2025).

This experiment has as its target T1, K(FEFK)2K.
T1 construct: designed amphipathic self-assembling peptide, L-amino acids; printed in short form K(FEFK)2K and written out here; forms beta-sheet-rich fibres and a hydrogel at pH 7; also called base peptide; peptide 1; source: synthetic peptide; bought: LifeTein Inc. (HCl salt, nominal purity 95%)
T1 peptide: KFEFKFEFKK
Nature of the experiment: FRET or BRET; FITC/Dabcyl quenching in mixed hydrogels: base peptide 3.75 mg mL^-1 plus secondary peptide, total 7.5 mg mL^-1 (mass ratio 1:1), pH 7, water; powders mixed before dissolving, pH raised stepwise with NaOH; quenching percentage compared with base hydrogels at 3.75 and 7.5 mg mL^-1.

Consider K(FEFK)2K (peptide), for which the fluorescence quenching percentage came to 30%.

B1: (FEFK)2K (peptide)
peptide: FEFKFEFKK
notes: designed amphipathic peptide; printed in short form (FEFK)2K and written out here; source: synthetic peptide; bought: LifeTein Inc. (HCl salt, nominal purity 95%)
B1: the binding result (both partners purified) is “binds”.
